Target: Phenylalanine hydroxylase from Legionella pneumophila (Legionella pneumophila) (UniProt Q5ZS72)
Assay: crystal structure

## Phenylalanine hydroxylase from Legionella pneumophila (from UniProt Q5ZS72 1-272) (enzyme)
  stoichiometry N: 2
